Results on one molecule are retold here after article PMC2841503 (Molecular cell, 2010).

In this experiment the target is yeast ubiquitin (yeast, UniProt P0CG63 1-76). Kind of experiment: NMR titration.
yeast ubiquitin, sequence (P0CG63 1-76): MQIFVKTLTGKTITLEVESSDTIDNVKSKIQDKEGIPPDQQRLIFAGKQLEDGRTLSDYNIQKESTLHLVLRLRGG

B1: S. cerevisiae Rev1 UBM2 (residues 804-857), GB1-fusion protein (domain or fragment, UniProt P12689 804-857, looked up)
chain: LEVNDLPSTMEEQFMNELPTQIRAEVRHDLRIQKKIQQTKLGNLQEKIKRREES
On to B1, for which the binding result was “binds”.
